Source: PMC3717276, “Optimization and validation of mitochondria-based functional assay as a useful tool to identify BH3-like molecules selectively targeting anti-apoptotic Bcl-2 proteins” (BMC Biotechnology, 2013)

Tests used:
[1] = molecular target: Human Bcl-2 protein (isoform 2 construct), N-terminal 6xHis tagged recombinant protein (human); assay: fluorescence polarisation; saturation experiments with FAM-Bid and Mcl-1 or Bcl-2 protein; assay buffer 100 mM potassium phosphate, pH 7.5, 100 ug/ml bovine gamma globulin, 0.02% sodium azide
[2] = molecular target: Human Bcl-2 protein (isoform 2 construct), N-terminal 6xHis tagged recombinant protein (human); assay: fluorescence polarisation; competition: Mcl-1 (20 nM) or Bcl-2 (40 nM) pre-incubated with FAM-Bid (2 nM and 2.5 nM), tested BH3 peptide added, 2-3 h; 100 mM potassium phosphate, pH 7.5, 100 ug/ml bovine gamma globulin, 0.02% sodium azide; Ki calculated from IC50
[3] = molecular target: Human Bcl-2 protein (isoform 2 construct), N-terminal 6xHis tagged recombinant protein (human); assay: SPR; competitive solution binding: protein (20 nM) pre-incubated with tested BH3 peptide for at least 30 min, injected over immobilised biotin-Bim BH3 peptide; response at 30 s of dissociation

## 21-residue Bid BH3 peptide labeled at the N-terminus with 6-carboxyfluorescein succinimidyl ester (FAM-Bid)
[1]
  Kd: 0.0063 µM

## Bid BH3 peptide (residues 79-99)
[2]
  Ki: 0.0112 µM
[3]
  IC50: 0.0512 µM
